Measurements from the supplement of paper PMC7877785.
± gives the uncertainty stated by the source.

Assay: self-splicing fitness, log relative to wild type (ln ratio); higher = more splicing; Tetrahymena group I intron in knt gene, E. coli kanamycin selection, DiMSum; sequences stand for … in CUCUCU…GGAGGGAAAAGUUAUCAGGCAUGCACCUGGUAGCUAGUCUUUAAACCAAUAGAUUGCAUCGGUUUAAAAGGCAAGACCGUCAAAUUGCGGGAAAGGGGUCAACAGCCGUUCAGUACCAAGUCUCAGGGGAAACUUUGAGAUGGCCUUGCAAAGGGUAUGGUAAUAAGCUGACGGACAUGGUCCUAACCACGCAGCCAAGUCCUAAGUCAACAGAUCUUCUGUUGAUAUGGAUGCAGUUCACAGACUAAAUGUCGGUCGGGGAAGAUGUAUUCUUCUCAUAAGAUAUAGUCGGACCUCUCCUUAAUGGGAGCUAGCGGAUGAAGUGAUGCAACACUGGAGCCGCUGGGAACUAAUUUGUAUGCGAAAGUAUAUUGAUUAGUUUUGGAGUACUCGUGGUCG
Outline: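 Colonies from six replicate transformations of E. coli BL21(DE3) were pooled and amplicon-sequenced on an Illumina HiSeq 2500. The library placed an intron with all eight P1ex-region nucleotides randomised inside the knt kanamycin-resistance gene on pET-22b(+), and cells grew overnight at 37°C or 30°C on LB agar with or without 25 μg/mL kanamycin (plus 100 μg/mL carbenicillin, 50 μM IPTG, 0.2% rhamnose). Fitness is the DiMSum error-weighted combination of wild-type-normalised replicate fold changes, kanamycin versus none.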

Sequence	self-splicing fitness (ln) (30 °C)	self-splicing fitness (ln) (37 °C)
AAUUAGCAAUAUUACGGGAG	-2.99 ± 0.19	-2.17 ± 0.16
ACGCAGCAAUAUUACGCUGG	-2.25 ± 0.12	-1.48 ± 0.14
GAAUAGCAAUAUUACGCUUG	-0.781 ± 0.11	-0.818 ± 0.14
CACAAGCAAUAUUACGAUAU	-3.34 ± 0.21	-2.52 ± 0.15
GAUAAGCAAUAUUACGCGUU	-2.05 ± 0.14	-2.95 ± 0.32
GCACAGCAAUAUUACGGAUU	-0.914 ± 0.055	-0.231 ± 0.073
AACAAGCAAUAUUACGCGUU	-3.91 ± 0.2	-3.32 ± 0.18
GGUUAGCAAUAUUACGGGAC	-3 ± 0.3	-1.44 ± 0.21
UGGAAGCAAUAUUACGCUCG	-0.853 ± 0.13	-0.272 ± 0.15
AAGGAGCAAUAUUACGUAAU	-3.8 ± 0.16	-2.27 ± 0.15
AGACAGCAAUAUUACGAAUU	-2.74 ± 0.1	-1.27 ± 0.11
CUGGAGCAAUAUUACGCUUC	-2.1 ± 0.28	
CACCAGCAAUAUUACGAUUC	-2.18 ± 0.094	-2.32 ± 0.18
CAAAAGCAAUAUUACGCCCU	-2.13 ± 0.17	-0.434 ± 0.17
GAAUAGCAAUAUUACGCGGG		-0.0263 ± 0.25
GGCUAGCAAUAUUACGGCCA	-1.53 ± 0.21	-0.776 ± 0.26
CGGAAGCAAUAUUACGGGCU	-3.27 ± 0.18	-3.3 ± 0.25
UAAUAGCAAUAUUACGACAG	-2.3 ± 0.19	-0.262 ± 0.17
GGUCAGCAAUAUUACGCGGG		-2.61 ± 0.28
UUAGAGCAAUAUUACGAGAU		-2.03 ± 0.43
UACAAGCAAUAUUACGGUCU	-1.52 ± 0.052	-0.534 ± 0.065
UUUUAGCAAUAUUACGAGCA	-1.72 ± 0.15	-0.97 ± 0.16
AGGAAGCAAUAUUACGGCGG	-1.34 ± 0.085	-0.207 ± 0.11
GCUGAGCAAUAUUACGGAUU	-2.33 ± 0.1	-1.26 ± 0.11
CACCAGCAAUAUUACGUAUG	-0.556 ± 0.041	-0.105 ± 0.055

Sequence	self-splicing fitness (ln) (30 °C)	self-splicing fitness (ln) (37 °C)
GUUGAGCAAUAUUACGGGCA	-3.29 ± 0.23	-0.813 ± 0.16
CCGGAGCAAUAUUACGCGUA	-3.18 ± 0.3	-1.59 ± 0.2
GGCUAGCAAUAUUACGGGAC	-3.59 ± 0.3	-0.762 ± 0.21
AGAUAGCAAUAUUACGAACU	-0.83 ± 0.16	0.533 ± 0.17
GGCGAGCAAUAUUACGUCCG	-3.67 ± 0.35	-2.39 ± 0.32
ACGAAGCAAUAUUACGUUCG	-1.3 ± 0.083	-0.906 ± 0.11
CAAAAGCAAUAUUACGCUGG	-2.88 ± 0.19	-1.9 ± 0.17
CAUCAGCAAUAUUACGUGUA	-1.18 ± 0.083	-0.43 ± 0.079
GAGAAGCAAUAUUACGUGUC	-3.95 ± 0.27	-2.1 ± 0.33
GAAAAGCAAUAUUACGAUCG	-0.618 ± 0.06	0.218 ± 0.08
UACCAGCAAUAUUACGUUUC	-4 ± 0.28	-2.56 ± 0.22
AAGCAGCAAUAUUACGGUCA	-1.19 ± 0.088	0.242 ± 0.1
ACUCAGCAAUAUUACGCCGA	-3.36 ± 0.39	-2.3 ± 0.28
CGCAAGCAAUAUUACGGUUA	-2.32 ± 0.14	-0.121 ± 0.085
GCAGAGCAAUAUUACGUCAG		-2.97 ± 0.29
CAAAAGCAAUAUUACGUGAU	-3.62 ± 0.11	-2.41 ± 0.12
GCCAAGCAAUAUUACGGCCC	-2.13 ± 0.2	-1.57 ± 0.22
UCCAAGCAAUAUUACGUACU	-3.94 ± 0.39	-2.54 ± 0.24
CGGUAGCAAUAUUACGUAAA	-1.14 ± 0.08	-2.33 ± 0.17
GGCUAGCAAUAUUACGGAGA	-3.65 ± 0.37	
UCAGAGCAAUAUUACGGUGU	-4.01 ± 0.3	-2.25 ± 0.18
CAGCAGCAAUAUUACGACAA	-3.11 ± 0.39	-1.67 ± 0.23
GGGAAGCAAUAUUACGGGAG	-3.28 ± 0.32	-2.09 ± 0.27
UAUUAGCAAUAUUACGAAUU	-2.51 ± 0.2	-0.596 ± 0.21
CAAUAGCAAUAUUACGAGUG	-0.279 ± 0.079	-0.905 ± 0.11

Sequence	self-splicing fitness (ln) (30 °C)	self-splicing fitness (ln) (37 °C)
AGCAAGCAAUAUUACGUUAG	-2.96 ± 0.17	-2.24 ± 0.22
AGUAAGCAAUAUUACGCAGC	-3.52 ± 0.32	-1.8 ± 0.3
UACUAGCAAUAUUACGAUUC	-2.3 ± 0.23	-1.76 ± 0.43
GCAUAGCAAUAUUACGAAGG	-2.02 ± 0.2	-1.31 ± 0.22
GUCAAGCAAUAUUACGAUGG	-4.88 ± 0.38	-3.68 ± 0.27
GAGCAGCAAUAUUACGAGGC	-2.67 ± 0.47	
GAGUAGCAAUAUUACGGCUC	-2.59 ± 0.37	-2.51 ± 0.48
GGGCAGCAAUAUUACGAGCG	-0.755 ± 0.1	0.344 ± 0.12
ACGUAGCAAUAUUACGCUAG	-2.85 ± 0.12	-0.713 ± 0.13
CGAAAGCAAUAUUACGAACC	-0.666 ± 0.14	-0.796 ± 0.16
UGAAAGCAAUAUUACGCUAU	-3.32 ± 0.23	-1.54 ± 0.17
GGCGAGCAAUAUUACGGUAU	-2.08 ± 0.13	-1.04 ± 0.17
CGUCAGCAAUAUUACGACUC	-0.282 ± 0.11	0.339 ± 0.16
UCAGAGCAAUAUUACGCGCU		-1.62 ± 0.29
AUAUAGCAAUAUUACGAACC	-1 ± 0.27	0.205 ± 0.24
UUCUAGCAAUAUUACGAUCG		-2.02 ± 0.28
AUAUAGCAAUAUUACGUGAA	-1.57 ± 0.28	-0.717 ± 0.33
ACCGAGCAAUAUUACGAUAG	-3.12 ± 0.21	-2.42 ± 0.24
CUAAAGCAAUAUUACGUGGG	-2.9 ± 0.11	-1.09 ± 0.092
UCCAAGCAAUAUUACGAUUA	-0.942 ± 0.11	-0.817 ± 0.11
UCUUAGCAAUAUUACGGCGU	-0.535 ± 0.15	-1.19 ± 0.2
ACCAAGCAAUAUUACGUGUA	-2.28 ± 0.09	-1.37 ± 0.096
ACUAAGCAAUAUUACGCGGU	-2.65 ± 0.14	-2.59 ± 0.21
GCUAAGCAAUAUUACGAAAA	-1.27 ± 0.15	-1.6 ± 0.17
ACACAGCAAUAUUACGUUGA	-1.91 ± 0.091	-1.92 ± 0.11

Sequence	self-splicing fitness (ln) (30 °C)	self-splicing fitness (ln) (37 °C)
GGCAAGCAAUAUUACGACAA	-0.0702 ± 0.12	-0.492 ± 0.13
AUAUAGCAAUAUUACGCGCU	0.0604 ± 0.24	-0.878 ± 0.38
CAAGAGCAAUAUUACGUGUC	-4.19 ± 0.2	-3.11 ± 0.2
CGGUAGCAAUAUUACGAAUG	-0.573 ± 0.076	0.205 ± 0.097
GCGAAGCAAUAUUACGGACA	-0.834 ± 0.13	-0.85 ± 0.13
CUUCAGCAAUAUUACGGAGU	-3.27 ± 0.15	-3.23 ± 0.28
UAACAGCAAUAUUACGAAAU	-3.46 ± 0.14	-2.52 ± 0.18
UUACAGCAAUAUUACGUCUU	-1.49 ± 0.069	-0.819 ± 0.09
UGAUAGCAAUAUUACGAGUA	-1.71 ± 0.16	-1.23 ± 0.13
UUAGAGCAAUAUUACGUCCG	-2.38 ± 0.24	-1.99 ± 0.34
AUGCAGCAAUAUUACGCCCC	-0.386 ± 0.27	-1.04 ± 0.27
UGCAAGCAAUAUUACGGUAU	-3.81 ± 0.21	-1.15 ± 0.14
GAGAAGCAAUAUUACGGCAU	-0.391 ± 0.07	0.567 ± 0.11
UAAGAGCAAUAUUACGGUAU	-3.87 ± 0.23	-2.27 ± 0.18
UACGAGCAAUAUUACGACUU	-2.11 ± 0.13	-0.959 ± 0.15
GCACAGCAAUAUUACGGCUG	-3.49 ± 0.13	-2.4 ± 0.14
AGGCAGCAAUAUUACGCCUA	-1.98 ± 0.23	-0.0372 ± 0.14
UAUGAGCAAUAUUACGACGG	-2.02 ± 0.13	-1.83 ± 0.19
GUAAAGCAAUAUUACGCCUA	-0.413 ± 0.14	0.493 ± 0.19
GGAGAGCAAUAUUACGAAAG	-2.26 ± 0.26	
UGGGAGCAAUAUUACGUCCA	-2.03 ± 0.12	-1.13 ± 0.11
AAAUAGCAAUAUUACGUAAG	-1.37 ± 0.078	-0.721 ± 0.096
UUAUAGCAAUAUUACGUUUA	-2.29 ± 0.16	-0.505 ± 0.12
